Numbered stars: 1 amine (or outer) side, 2 acyl side, 3 side chain; on linkers, the order of the positions; unused ones are H or OH. Square brackets hold non-standard residues; d marks the D form. Side chains are listed from the residue outwards. * marks the point of attachment. TTDS = 4-[3-[2-[2-(3-aminopropoxy)ethoxy]ethoxy]propylamino]-4-oxo-butanoyl; Trp(5-Cl) = N[C@@H](Cc1c[nH]c2ccc(Cl)cc12)C(=O)O; γGlu = O=C(O)[C@H](CCC(=O)[*:2])N[*:1]; Stearoyl = CCCCCCCCCCCCCCCCCC(=O)*; Palmitoyl = CCCCCCCCCCCCCCCC(=O)*; αMeK = C[C@](N)(CCCCN)C(=O)O; AEEA = NCCOCCOCC(=O)O; Aib = CC(C)(N)C(=O)O
T1: human RXFP1 (human, UniProt Q9HBX9 1-757)
T1 sequence (looked up): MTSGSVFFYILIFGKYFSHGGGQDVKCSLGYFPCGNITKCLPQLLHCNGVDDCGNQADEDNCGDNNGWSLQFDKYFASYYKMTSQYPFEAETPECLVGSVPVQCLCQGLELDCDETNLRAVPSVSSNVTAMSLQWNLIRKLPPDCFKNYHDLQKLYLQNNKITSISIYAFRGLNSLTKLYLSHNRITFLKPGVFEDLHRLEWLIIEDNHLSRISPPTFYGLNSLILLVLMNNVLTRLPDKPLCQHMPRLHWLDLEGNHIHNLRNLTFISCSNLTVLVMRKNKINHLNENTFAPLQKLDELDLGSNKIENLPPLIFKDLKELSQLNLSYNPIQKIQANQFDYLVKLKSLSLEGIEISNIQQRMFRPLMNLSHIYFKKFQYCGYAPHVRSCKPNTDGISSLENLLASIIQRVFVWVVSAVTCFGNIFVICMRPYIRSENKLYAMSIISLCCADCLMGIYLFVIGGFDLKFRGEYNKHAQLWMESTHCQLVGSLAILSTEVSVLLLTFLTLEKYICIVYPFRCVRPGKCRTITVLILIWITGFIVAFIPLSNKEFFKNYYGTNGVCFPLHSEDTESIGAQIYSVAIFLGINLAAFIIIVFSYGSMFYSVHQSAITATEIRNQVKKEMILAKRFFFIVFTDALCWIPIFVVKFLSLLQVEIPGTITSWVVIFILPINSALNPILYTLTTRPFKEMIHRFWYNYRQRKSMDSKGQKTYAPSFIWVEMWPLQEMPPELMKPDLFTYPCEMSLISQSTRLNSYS


Target: T1, human RXFP1
Test: cell-based or functional assay

| Binder | EC50 (nM), OVCAR 5 cells (cAMP) [nM] | EMax, OVCAR 5 cells (cAMP) [%] |
| --- | --- | --- |
| Ac-LEGREKVRAK(Ac)I[Aib][Aib]EGK([TTDS-TTDS-TTDS-γGlu-γGlu-γGlu-Palmitoyl])STWS[Aib]RKK(Ac)-NH2 [Relaxin peptide analogue of SEQ ID NO: 1] | 1.5 | 99 |
| Ac-LEGREKVRAK(Ac)I[Aib][Aib]EGK([AEEA-AEEA-AEEA-AEEA-γGlu-γGlu-γGlu-Palmitoyl])STWS[Aib]RKK(Ac)-NH2 (SMILES CCCCCCCCCCCCCCCC(=O)N[C@@H](CCC(=O)N[C@@H](CCC(=O)N[C@@H](CCC(=O)NCCOCCOCC(=O)NCCOCCOCC(=O)NCCOCCOCC(=O)NCCOCCOCC(=O)NCCCC[C@H](NC(=O)CNC(=O)[C@H](CCC(=O)O)NC(=O)C(C)(C)NC(=O)C(C)(C)NC(=O)[C@@H](NC(=O)[C@H](CCCCNC(C)=O)NC(=O)[C@H](C)NC(=O)[C@H](CCCNC(=N)N)NC(=O)[C@@H](NC(=O)[C@H](CCCCN)NC(=O)[C@H](CCC(=O)O)NC(=O)[C@H](CCCNC(=N)N)NC(=O)CNC(=O)[C@H](CCC(=O)O)NC(=O)[C@H](CC(C)C)NC(C)=O)C(C)C)[C@@H](C)CC)C(=O)N[C@@H](CO)C(=O)N[C@H](C(=O)N[C@@H](Cc1c[nH]c2ccccc12)C(=O)N[C@@H](CO)C(=O)NC(C)(C)C(=O)N[C@@H](CCCNC(=N)N)C(=O)N[C@@H](CCCCN)C(=O)N[C@@H](CCCCNC(C)=O)C(N)=O)[C@@H](C)O)C(=O)O)C(=O)O)C(=O)O) [Relaxin peptide analogue of SEQ ID NO: 5] | 9.1 | 85 |
| Ac-LEGREKVRAK(Ac)I[Aib][Aib]EGK([TTDS-TTDS-TTDS-TTDS-γGlu-γGlu-γGlu-Stearoyl])STFS[Aib]RKK(Ac)-NH2 [Relaxin peptide analogue of SEQ ID NO: 59] | 0.09 | 99 |
| Ac-LEGREKVRAK(Ac)I[Aib][Aib]EGK([TTDS-TTDS-γGlu-γGlu-γGlu-Stearoyl])STFS[Aib]RKK(Ac)-NH2 [Relaxin peptide analogue of SEQ ID NO: 60] | 0.15 | 95 |
| Ac-LEGREKVRAK(Ac)I[Aib][Aib]EGK([TTDS-TTDS-TTDS-γGlu-γGlu-γGlu-Stearoyl])STFS[Aib]RKK(Ac)-NH2 [Relaxin peptide analogue of SEQ ID NO: 61] | 0.1 | 97 |
| Ac-LEGREKVRAK(Ac)I[Aib][Aib]EGK([TTDS-TTDS-TTDS-γGlu-γGlu-γGlu-γGlu-Palmitoyl])STWS[Aib]RKK(Ac)-NH2 [Relaxin peptide analogue of SEQ ID NO: 62] | 0.6 | 98 |
| Ac-LEGREKVRAK(Ac)I[Aib][Aib]EGK([TTDS-TTDS-TTDS-γGlu-γGlu-γGlu-Palmitoyl])SQWS[Aib]RKK(Ac)-NH2 [Relaxin peptide analogue of SEQ ID NO: 63] | 1.45 | 97 |
| Ac-LEGREKVRAK(Ac)I[Aib][Aib]EGK([TTDS-TTDS-TTDS-γGlu-γGlu-γGlu-Palmitoyl])SRWS[Aib]RKK(Ac)-NH2 [Relaxin peptide analogue of SEQ ID NO: 64] | 0.52 | 95 |
| Ac-LEGREKVRAK(Ac)I[Aib][Aib]EGK([TTDS-TTDS-γGlu-γGlu-γGlu-Stearoyl])STWS[Aib]RKK(Ac)-NH2 [Relaxin peptide analogue of SEQ ID NO: 6] | 0.27 | 95 |
| Ac-LEGREKVRK(Ac)QI[Aib][Aib]EGK([TTDS-TTDS-TTDS-γGlu-γGlu-γGlu-Palmitoyl])STWS[Aib]RKK(Ac)-NH2 [Relaxin peptide analogue of SEQ ID NO: 65] | 1.19 | 95 |
| Ac-LEGREKVRAK(Ac)I[Aib][Aib]EGK([TTDS-TTDS-TTDS-γGlu-γGlu-γGlu-Palmitoyl])STWK(Ac)[Aib]RAK(Ac)-NH2 [Relaxin peptide analogue of SEQ ID NO: 66] | 6.31 | 93 |
| Ac-LEGRERVRAK(Ac)I[Aib][Aib]EGK([TTDS-TTDS-TTDS-γGlu-γGlu-γGlu-Palmitoyl])STWS[Aib]RKK(Ac)-NH2 [Relaxin peptide analogue of SEQ ID NO: 67] | 0.48 | 95 |
| Ac-LEGREKVRAK(Ac)I[Aib][Aib]EGK([TTDS-TTDS-TTDS-γGlu-γGlu-γGlu-Palmitoyl])STWS[Aib]RK(Ac)K-NH2 [Relaxin peptide analogue of SEQ ID NO: 68] | 0.88 | 98 |
| Ac-LEGREKVRAK(Ac)I[Aib][Aib]EGK([TTDS-TTDS-TTDS-γGlu-γGlu-γGlu-Palmitoyl])STWS[Aib]RK(Ac)R-NH2 [Relaxin peptide analogue of SEQ ID NO: 69] | 0.78 | 97 |
| Ac-LEGREKVRAK(Ac)I[Aib]IEGK([TTDS-TTDS-TTDS-γGlu-γGlu-γGlu-Palmitoyl])STWS[Aib]RKK(Ac)-NH2 [Relaxin peptide analogue of SEQ ID NO: 70] | 1.34 | 94 |
| Ac-LEGREKVRAK(Ac)I[Aib][Aib]EGK([TTDS-TTDS-TTDS-γGlu-γGlu-γGlu-Palmitoyl])STWS[Aib]RAK-NH2 [Relaxin peptide analogue of SEQ ID NO: 71] | 0.36 | 95 |
| Ac-LEGREKVRAK(Ac)I[Aib][Aib]EGK([TTDS-TTDS-TTDS-γGlu-γGlu-γGlu-Palmitoyl])STF[Aib]RRAK(Ac)-NH2 [Relaxin peptide analogue of SEQ ID NO: 72] | 0.56 | 91 |
| Ac-LEGREKVRAK(Ac)I[Aib][Aib]EGK([TTDS-TTDS-TTDS-γGlu-γGlu-γGlu-Palmitoyl])SKWS[Aib]RAK-NH2 [Relaxin peptide analogue of SEQ ID NO: 73] | 0.2 | 95 |
| Ac-LEGREKVRAK(Ac)I[Aib]IEGK([TTDS-TTDS-TTDS-TTDS-γGlu-γGlu-γGlu-Palmitoyl])STWS[Aib]RKK(Ac)-NH2 [Relaxin peptide analogue of SEQ ID NO: 74] | 0.54 | 94 |
| Ac-LEGREKVRAK(Ac)I[Aib][Aib]EGK([TTDS-TTDS-TTDS-γGlu-γGlu-γGlu-Stearoyl])STFS[αMeK]RAK(Ac)-NH2 [Relaxin peptide analogue of SEQ ID NO: 7] | 0.07 | 95 |
| Ac-LEGRERVRAK(Ac)I[Aib][Aib]EGK([TTDS-TTDS-TTDS-TTDS-γGlu-γGlu-γGlu-Palmitoyl])STWS[Aib]RRK(Ac)-NH2 [Relaxin peptide analogue of SEQ ID NO: 75] | 0.19 | 97 |
| Ac-LEGRERVRAK(Ac)I[Aib][Aib]EGK([TTDS-TTDS-TTDS-γGlu-γGlu-γGlu-Palmitoyl])STFS[Aib]RRK(Ac)-NH2 [Relaxin peptide analogue of SEQ ID NO: 76] | 0.18 | 96 |
| Ac-LEGRERVRAK(Ac)I[Aib][Aib]EGK([TTDS-TTDS-TTDS-TTDS-γGlu-γGlu-γGlu-Palmitoyl])STFS[Aib]RRK(Ac)-NH2 [Relaxin peptide analogue of SEQ ID NO: 77] | 0.11 | 98 |
| Ac-LEGREKVRAK(Ac)I[Aib][Aib]EGK([TTDS-TTDS-TTDS-TTDS-γGlu-γGlu-γGlu-Palmitoyl])STFS[αMeK]RAK(Ac)-NH2 [Relaxin peptide analogue of SEQ ID NO: 78] | 0.18 | 99 |
| Ac-LEGREKVRAK(Ac)I[Aib][Aib]EGK([TTDS-TTDS-TTDS-γGlu-γGlu-γGlu-Palmitoyl])SKFS[Aib]RKK(Ac)-NH2 [Relaxin peptide analogue of SEQ ID NO: 79] | 0.45 | 95 |
| Ac-LEGRERVRAK(Ac)I[Aib][Aib]EGK([TTDS-TTDS-TTDS-γGlu-γGlu-γGlu-Palmitoyl])ST[Trp(5-Cl)]S[Aib]RRK(Ac)-NH2 [Relaxin peptide analogue of SEQ ID NO: 80] | 0.63 | 93 |
| Ac-K(Ac)EGREKVRAK(Ac)I[Aib][Aib]EGK([TTDS-TTDS-TTDS-γGlu-γGlu-γGlu-Palmitoyl])STFS[αMeK]RAK(Ac)-NH2 [Relaxin peptide analogue of SEQ ID NO: 81] | 0.16 | 98 |
